The record followed here is patent publication US6468985B1, “Retinoblastoma protein-interacting zinc finger proteins” (The Burnham Institute, priority 1994, dated 2002).

Assay [1] has as its system SK-MEL-23 melanoma cell line. Kind of assay: RIZ D283 allele transcript expression after demethylating agent. It counts as cell-based, human. The note with it: 3 uM, cultured 3 to 6 days. The protocol: RNA samples from the 20 heterozygous melanoma cell lines were sequenced to determine if both alleles were transcribed in the cell or if only one allele was transcribed (ie. monoallelic expression). Sequencing was performed on DNA products produced by reverse transcription-PCR (RT-PCR) amplification using specific RIZ primers. RT-PCR amplification was performed according to the manufacturer's instructions (GeneAmp RNA PCR kit; Perkin Elmer). A 640 bp fragment encoding RIZ exons 5-7 was obtained from transcription of 1 μg of total RNA using the SSO 82 primer (SEQ ID NO: 93) and PCR amplification using the SSO 24 primer (5′[…]3′; SEQ ID NO: 106) and the SSO 82 primer (SEQ ID NO: 93). The amplified fragment was gel purified and sequenced using primer SSO 82 and a CircumVent™ Thermal Cycle DNA Sequencing kit (New England Biolabs; Beverly Mass.). The sequencing products were analyzed on a […] sequencing gel.
The SK-MEL-23 melanoma cell line was cultured for 3 to 6 days with 3 uM of the demethylating agent 5-azacytidine.

The next assay deals with T1, 56 kD fragment of Rb (Homo sapiens, UniProt P06400).
T1 construct: p56 Rb: 56 kD fragment of Rb from a.a. position 379-928; made in house
T1 sequence (P06400 379-928): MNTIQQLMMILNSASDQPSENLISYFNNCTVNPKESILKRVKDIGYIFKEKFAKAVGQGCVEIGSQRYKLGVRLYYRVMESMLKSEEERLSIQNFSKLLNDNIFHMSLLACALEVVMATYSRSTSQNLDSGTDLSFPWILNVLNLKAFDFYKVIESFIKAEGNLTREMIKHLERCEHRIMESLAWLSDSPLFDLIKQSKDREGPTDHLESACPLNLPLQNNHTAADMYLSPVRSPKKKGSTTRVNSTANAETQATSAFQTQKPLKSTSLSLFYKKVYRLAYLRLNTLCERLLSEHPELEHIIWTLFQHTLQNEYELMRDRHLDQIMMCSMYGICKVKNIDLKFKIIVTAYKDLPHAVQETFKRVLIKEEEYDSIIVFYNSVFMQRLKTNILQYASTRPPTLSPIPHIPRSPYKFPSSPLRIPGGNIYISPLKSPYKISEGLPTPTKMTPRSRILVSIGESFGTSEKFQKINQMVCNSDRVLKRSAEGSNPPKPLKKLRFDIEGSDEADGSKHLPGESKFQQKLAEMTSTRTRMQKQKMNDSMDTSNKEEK
The assay can be described thus: binding of 35S-labeled RIZ fragments to 56 kD Rb, immunoprecipitation with anti-Rb antiserum. The protocol:
To characterize the interaction between RIZ and Rb, a ^35S-labeled fragment of rat RIZ from amino acid position 245-883 (RIZ (245-883)) was produced by subcloning the 1.9 kb insert of clone 7.1 into PBKS+ (Stratagene) to yield plasmid pBKS+7.1. […] The larger size obtained by SDS-PAGE is likely due to anomalous mobility of the RIZ fragment on the gel.
A 56 kD fragment of Rb produced by bacterial expression from p56Rb plasmid, as described previously (Huang et al., supra, 1991), was tested for binding to radiolabeled RIZ (245-883). Binding was detected by immunoprecipitation with an anti-Rb antiserum and Protein A-Sepharosew™ (Huang et al., supra, 1990), which is incorporated herein by reference; and Huang et al., supra, 1991) followed by SDS-PAGE and autoradiography (see Harlow and Lane, supra, 1988). The rabbit anti-Rb antiserum was produced to purified p56Rb using previously described methods (see Harlow and Lane, supra, 1988).
The amount of binding of RIZ by Rb in the immunoprecipitation reaction was dependent on the concentration of Rb added. Full binding of ^35S-labeled RIZ (245-883) was achieved by 10 nM Rb but not 3.3 nM Rb (not shown). […]
Binding between labeled RIZ (1-575) and the glycine mutant with 33 nM Rb was evaluated by immunoprecipitation with anti-Rb antiserum followed by SDS-PAGE and autoradiography.

In assay [2] the target is T2, Rb from HT1080 cell extract (Homo sapiens, UniProt P06400).
T2 construct: endogenous in cells; host or cells: HT1080 cells (lysate)
T2 sequence (P06400 1-928): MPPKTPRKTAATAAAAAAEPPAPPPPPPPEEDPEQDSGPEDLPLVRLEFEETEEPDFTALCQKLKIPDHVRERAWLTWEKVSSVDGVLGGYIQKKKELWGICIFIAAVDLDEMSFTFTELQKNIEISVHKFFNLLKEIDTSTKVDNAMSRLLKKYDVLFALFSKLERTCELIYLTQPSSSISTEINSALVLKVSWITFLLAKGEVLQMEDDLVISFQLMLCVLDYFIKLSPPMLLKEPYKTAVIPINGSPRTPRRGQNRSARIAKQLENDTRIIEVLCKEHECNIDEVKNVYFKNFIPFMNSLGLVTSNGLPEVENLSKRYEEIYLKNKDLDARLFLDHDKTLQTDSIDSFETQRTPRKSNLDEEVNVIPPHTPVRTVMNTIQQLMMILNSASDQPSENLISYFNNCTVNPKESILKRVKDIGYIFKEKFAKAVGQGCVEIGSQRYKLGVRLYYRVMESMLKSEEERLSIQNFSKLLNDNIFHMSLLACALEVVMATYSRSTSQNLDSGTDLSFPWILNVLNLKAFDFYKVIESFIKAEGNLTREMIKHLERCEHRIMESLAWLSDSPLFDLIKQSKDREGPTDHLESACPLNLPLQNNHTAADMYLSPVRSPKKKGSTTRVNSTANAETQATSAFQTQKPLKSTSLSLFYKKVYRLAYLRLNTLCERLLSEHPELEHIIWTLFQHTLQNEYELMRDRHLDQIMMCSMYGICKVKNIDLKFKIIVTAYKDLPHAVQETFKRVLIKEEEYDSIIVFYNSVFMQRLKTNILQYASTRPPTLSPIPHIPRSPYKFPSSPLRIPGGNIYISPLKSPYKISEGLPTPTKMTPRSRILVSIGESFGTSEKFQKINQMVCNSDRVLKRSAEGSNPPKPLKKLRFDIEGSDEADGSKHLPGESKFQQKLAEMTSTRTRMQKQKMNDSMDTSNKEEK
Kind of assay: GST-RIZ (215-462) glutathione-agarose pull-down of Rb from cell extract, anti-Rb immunoblot. The note with it: 4 μg GST-RIZ (215-462). It counts as binding. How it is done: Rat RIZ was tested for binding to Rb in HT1080 cells (ATCC #ICCL 121). The cells were grown in DMEM supplemented with […]. Cells were lysed in ELB buffer (50 mM HEPES, pH 7.5, 250 mM NaCl, 0.1% NP-40) supplemented with 5 mM EDTA, 50 mM NaF, 1 mM Na orthovanadate, 1 mM of DTT, aprotinin, leupeptin, and PMSF. The lysate was cleared of cell debris by centrifugation at 12,000 rpm for 10 min in a microfuge.
Binding between 4 μg GST-RIZ (215-462) and Rb from HT1080 cell extract was evaluated by first mixing the two, then binding GST-RIZ and any associated Rb to glutathione-agarose beads. The beads were washed in binding buffer and the bound complexes were eluted by boiling in SDS buffer and analyzed by immunoblotting with anti-Rb antiserum. Immunoblotting was performed by standard techniques (see, for example, Harlow and Lane, supra, 1988).

Another assay deals with T3, full length RIZ (Rattus norvegicus, UniProt Q63755).
T3 construct: made in house; host or cells: in vitro translation (35S label; method not repeated for this protein)
Kind of assay: RIZ homo-oligomer formation. It counts as binding.

T3 sequence (Q63755 whole entry): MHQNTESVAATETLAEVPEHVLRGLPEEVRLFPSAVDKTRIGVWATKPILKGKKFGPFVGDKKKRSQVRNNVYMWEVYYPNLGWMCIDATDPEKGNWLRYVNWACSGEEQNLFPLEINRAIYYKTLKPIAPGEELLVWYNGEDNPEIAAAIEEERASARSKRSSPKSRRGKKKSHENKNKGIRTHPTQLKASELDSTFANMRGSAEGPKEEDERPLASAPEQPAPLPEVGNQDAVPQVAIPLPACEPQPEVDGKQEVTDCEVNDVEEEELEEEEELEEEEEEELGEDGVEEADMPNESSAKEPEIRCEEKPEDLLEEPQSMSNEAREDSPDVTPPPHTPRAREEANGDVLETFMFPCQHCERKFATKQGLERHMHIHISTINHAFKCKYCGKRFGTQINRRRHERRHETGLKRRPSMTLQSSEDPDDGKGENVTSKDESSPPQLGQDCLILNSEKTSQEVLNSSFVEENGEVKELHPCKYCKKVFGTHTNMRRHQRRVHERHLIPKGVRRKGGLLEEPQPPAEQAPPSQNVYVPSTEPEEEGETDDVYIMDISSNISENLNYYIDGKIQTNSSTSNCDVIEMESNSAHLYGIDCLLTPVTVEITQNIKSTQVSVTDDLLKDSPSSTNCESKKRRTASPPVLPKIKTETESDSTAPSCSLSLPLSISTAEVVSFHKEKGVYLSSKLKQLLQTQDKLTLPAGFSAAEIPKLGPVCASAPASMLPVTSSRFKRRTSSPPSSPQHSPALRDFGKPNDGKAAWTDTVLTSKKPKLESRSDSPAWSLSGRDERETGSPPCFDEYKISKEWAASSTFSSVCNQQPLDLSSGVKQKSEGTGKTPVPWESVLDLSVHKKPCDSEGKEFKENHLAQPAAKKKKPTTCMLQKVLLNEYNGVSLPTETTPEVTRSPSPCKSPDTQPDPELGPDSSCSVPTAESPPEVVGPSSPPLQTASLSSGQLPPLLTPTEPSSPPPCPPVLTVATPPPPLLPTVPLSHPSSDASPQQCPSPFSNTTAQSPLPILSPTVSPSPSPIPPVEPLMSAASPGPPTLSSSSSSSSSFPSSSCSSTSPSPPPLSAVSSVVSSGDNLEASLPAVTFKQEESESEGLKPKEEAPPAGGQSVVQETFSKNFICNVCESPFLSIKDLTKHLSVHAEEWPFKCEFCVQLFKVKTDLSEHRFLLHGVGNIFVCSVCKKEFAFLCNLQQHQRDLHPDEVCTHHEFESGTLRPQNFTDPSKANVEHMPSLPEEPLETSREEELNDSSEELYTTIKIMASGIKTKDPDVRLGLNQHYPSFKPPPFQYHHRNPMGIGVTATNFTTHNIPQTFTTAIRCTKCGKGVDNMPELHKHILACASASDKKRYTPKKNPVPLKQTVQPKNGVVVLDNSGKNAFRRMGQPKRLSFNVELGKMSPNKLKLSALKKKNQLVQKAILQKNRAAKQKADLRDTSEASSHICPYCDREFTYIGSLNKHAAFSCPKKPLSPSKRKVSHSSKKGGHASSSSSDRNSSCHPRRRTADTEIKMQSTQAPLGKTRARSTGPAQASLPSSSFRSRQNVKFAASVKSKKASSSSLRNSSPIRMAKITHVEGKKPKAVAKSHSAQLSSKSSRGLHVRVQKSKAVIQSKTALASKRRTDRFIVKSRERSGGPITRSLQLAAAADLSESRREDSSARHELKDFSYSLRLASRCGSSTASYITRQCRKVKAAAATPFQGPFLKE

As to `Nc1ncn([C@@H]2O[C@H](CO)[C@@H](O)[C@H]2O)c(=O)n1` [5-azacytidine], the “effect on reduced expression of RIZ D283 transcripts” value in assay [1] is recorded as “unaffected”.

B1: RIZ (1-575): fragment of RIZ from amino acid position 1-575 (protein)
chain: MHQNTESVAATETLAEVPEHVLRGLPEEVRLFPSAVDKTRIGVWATKPILKGKKFGPFVGDKKKRSQVRNNVYMWEVYYPNLGWMCIDATDPEKGNWLRYVNWACSGEEQNLFPLEINRAIYYKTLKPIAPGEELLVWYNGEDNPEIAAAIEEERASARSKRSSPKSRRGKKKSHENKNKGIRTHPTQLKASELDSTFANMRGSAEGPKEEDERPLASAPEQPAPLPEVGNQDAVPQVAIPLPACEPQPEVDGKQEVTDCEVNDVEEEELEEEEELEEEEEEELGEDGVEEADMPNESSAKEPEIRCEEKPEDLLEEPQSMSNEAREDSPDVTPPPHTPRAREEANGDVLETFMFPCQHCERKFATKQGLERHMHIHISTINHAFKCKYCGKRFGTQINRRRHERRHETGLKRRPSMTLQSSEDPDDGKGENVTSKDESSPPQLGQDCLILNSEKTSQEVLNSSFVEENGEVKELHPCKYCKKVFGTHTNMRRHQRRVHERHLIPKGVRRKGGLLEEPQPPAEQAPPSQNVYVPSTEPEEEGETDDVYIMDISSNISENLNYYIDGKIQTNSSTS
In the case of B1, the “binding to Rb in vitro (FIG. 4)” value in the assay with 56 kD fragment of Rb is “specifically binds”.

B2: GST-RIZ (215-462): purified rat RIZ (a.a. position 215-462) fused C-terminal to glutathionine S-transferase (protein)
chain: PLASAPEQPAPLPEVGNQDAVPQVAIPLPACEPQPEVDGKQEVTDCEVNDVEEEELEEEEELEEEEEEELGEDGVEEADMPNESSAKEPEIRCEEKPEDLLEEPQSMSNEAREDSPDVTPPPHTPRAREEANGDVLETFMFPCQHCERKFATKQGLERHMHIHISTINHAFKCKYCGKRFGTQINRRRHERRHETGLKRRPSMTLQSSEDPDDGKGENVTSKDESSPPQLGQDCLILNSEKTSQEVLN
modifications: left off: a dimerising Fc or GST
notes: purified rat RIZ (a.a. position 215-462) fused C-terminal to glutathionine S-transferase
B2: the “binding to Rb from HT1080 cell extract” value in assay [2] is “bound to the fastest migrating forms of Rb”. In addition, the “binding to 35S-labeled full length RIZ (homo-oligomer formation)” value with full length RIZ is listed as “lack of binding”.
